The text below walks through data of publication PMC13123425.

For this assay, the target named is T1, human VWF-A2 fragment.
T1 chain: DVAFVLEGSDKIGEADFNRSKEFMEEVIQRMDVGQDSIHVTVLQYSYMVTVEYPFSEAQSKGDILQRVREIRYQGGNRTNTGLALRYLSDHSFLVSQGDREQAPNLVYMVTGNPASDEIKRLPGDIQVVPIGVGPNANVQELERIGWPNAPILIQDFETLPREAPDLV
The assay is described as follows: microscale thermophoresis. On the set-up: unit not given beside the values. As to conditions: chain shown with the change;; parent: est. 6.2e-9; read off a plot. (In general: MST reads how a fluorescent partner responds to local heating, with and without ligand.)

B1: human recombinant wild-type complement factor H, P08603 W1183R (protein)
chain: EDCNELPPRRNTEILTGSWSDQTYPEGTQAIYKCRPGYRSLGNVIMVCRKGEWVALNPLRKCQKRPCGHPGDTPFGTFTLTGGNVFEYGVKAVYTCNEGYQLLGEINYRECDTDGWTNDIPICEVVKCLPVTAPENGKIVSSAMEPDREYHFGQAVRFVCNSGYKIEGDEEMHCSDDGFWSKEKPKCVEISCKSPDVINGSPISQKIIYKENERFQYKCNMGYEYSERGDAVCTESGWRPLPSCEEKSCDNPYIPNGDYSPLRIKHRTGDEITYQCRNGFYPATRGNTAKCTSTGWIPAPRCTLKPCDYPDIKHGGLYHENMRRPYFPVAVGKYYSYYCDEHFETPSGSYWDHIHCTQDGWSPAVPCLRKCYFPYLENGYNQNYGRKFVQGKSIDVACHPGYALPKAQTTVTCMENGWSPTPRCIRVKTCSKSSIDIENGFISESQYTYALKEKAKYQCKLGYVTADGETSGSITCGKDGWSAQPTCIKSCDIPVFMNARTKNDFTWFKLNDTLDYECHDGYESNTGSTTGSIVCGYNGWSDLPICYERECELPKIDVHLVPDRKKDQYKVGEVLKFSCKPGFTIVGPNSVQCYHFGLSPDLPICKEQVQSCGPPPELLNGNVKEKTKEEYGHSEVVEYYCNPRFLMKGPNKIQCVDGEWTTLPVCIVEESTCGDIPELEHGWAQLSSPPYYYGDSVEFNCSESFTMIGHRSITCIHGVWTQLPQCVAIDKLKKCKSSNLIILEEHLKNKKEFDHNSNIRYRCRGKEGWIHTVCINGRWDPEVNCSMAQIQLCPPPPQIPNSHNMTTTLNYRDGEKVSVLCQENYLIQEGEEITCKDGRWQSIPLCVEKIPCSQPPQIEHGTINSSRSSQESYAHGTKLSYTCEGGFRISEENETTCYMGKWSSPPQCEGLPCKSPPEISHGVVAHMSDSYQYGEEVTYKCFEGFGIDGPAIAKCLGEKWSHPPSCIKTDCLSLPSFENAIPMGEKKDVYKAGEQVTYTCATYYKMDGASNVTCINSRWTGRPTCRDTSCVNPPTVQNAYIVSRQMSKYPSGERVRYQCRSPYEMFGDEEVMCLNGNWTEPPQCKDSTGKCGPPPPIDNGDITSFPLSVYAPASSVEYQCQNLYQLEGNKRITCRNGQWSEPPKCLHPCVISREIMENYNIALRRTAKQKLYSRTGESVEFVCKRGYRLSSRSHTLRTTCWDGKLEYPTCAKR
Turning to B1, the EC50 came to 2.3e-09.
